US20230287070A1, “NOVEL TUMOR-SPECIFIC ANTIGENS FOR ACUTE MYELOID LEUKEMIA (AML) AND USES THEREOF” (UNIVERSITE DE MONTREAL, priority 2020, published 2023)

Key:
T-cell clonotypes = experiment: FEST assay (functional expansion of specific T cells, TCR Vβ CDR3 sequencing); type: cell-based, human; settings: pool of TSAs^hi, healthy donor
Description: For FEST assays, T cells were cultured as previously described, with minor modifications (Danilova et al., 2018). Briefly, on day 0, thawed PBMCs from a healthy donor (BioIVT) were T-cell enriched using the Human Pan T-cell isolation kit (Miltenyi). T cells were resuspended at 2 × 10^6/mL in AIM V media supplemented with 50 µg/mL gentamicin (ThermoFisher Scientific) and 1% Hepes. The T cell-negative fraction was irradiated at 30 Gy, washed and resuspended at 2.0 × 10^6/mL in AIM V media supplemented with 50 µg/mL gentamicin and 1% Hepes. One ml per well of both T cells and irradiated T cell-depleted cells were added to a 12-well plate, along with either one of the 3 TSA^hi pools (5 TSAs^hi per pool, 1 µM final concentration for each TSA) or without peptide. Cells were cultured for 10 days at 37° C., 5% CO2. On day 3 and 7, half the culture media was replaced with fresh culture media containing 100 IU/mL IL-2, 50 ng/mL IL-7, and 50 ng/mL IL-15 (day 3) and 200 IU/mL IL-2, 50 ng/mL IL-7, and 50 ng/mL IL-15 (day 7). On day 10, cells were harvested and CD8^+ cells were further isolated using the Human CD8^+ T Cell Isolation Kit (Miltenyi). As a negative control, CD8^+ T cells were also isolated from freshly thawed uncultured PBMCs of the same healthy donor. DNA was extracted from CD8^+ T cells using a Qiagen DNA blood mini kit (Qiagen). […]

[1] = molecular target: Pool 2 of TSAs^hi: … … … … …; experiment: cell-based or functional assay
[2] = molecular target: Pool 1 of TSAs^hi: … … … IASPIALL …; experiment: cell-based or functional assay
[3] = molecular target: Pool 3 of TSAs^hi: LRSQILSY … … … …; experiment: cell-based or functional assay

## 3 (GARQQIHSW; listed as Homo sapiens) [compound 3]
T-cell clonotypes
  Significantly expanded clonotype (SEQ ID NO:): CARSFGGFF (213)

## CASSRTGENTEAFF (TCR)
[1]
  FEST assay: clonotype expansion, odds ratio (FDR 0.003813): 3.35

## CASSSTDRQHYGYTF (TCR)
[1]
  FEST assay: clonotype expansion, odds ratio (FDR 0.007052): 3.76

## CATSRSGDSNQPQHF (TCR)
[1]
  FEST assay: clonotype expansion, odds ratio (FDR 0.008031): 8.21

## CASTVVAGNSSPLHF (TCR)
[2]
  FEST assay: clonotype expansion, odds ratio (FDR 1.2 E-07): 18.8

## CASSVDAGGNYEQYF (TCR)
[2]
  FEST assay: clonotype expansion, odds ratio (FDR 0.000665): 12.3

## CASSDRTGGSSNEKLFF (TCR)
[1]
  FEST assay: clonotype expansion, odds ratio (FDR 0.008031): 8.21

## CASSADSSLGGYTF (TCR)
[3]
  FEST assay: clonotype expansion, odds ratio (FDR 1.13 E-10): 45.4

## CASSYVLNTEAFF (TCR)
[1]
  FEST assay: clonotype expansion, odds ratio (FDR 0.010284): 10.8

## CASSESGTGGQPQHF (TCR)
[1]
  FEST assay: clonotype expansion, odds ratio (FDR 1.14 E-08): 3.46

## CASSEYRALNTEAFF (TCR)
[1]
  FEST assay: clonotype expansion, odds ratio (FDR 4.67 E-30): 59.8
